Data from article PMC4520738.

Target: hDNMT1 351-1600 R582E (Homo sapiens, UniProt P26358 351-1600, R582E)
Test: EMSA

hDNMT1 351-1600 R582E, sequence (P26358 351-1600 R582E): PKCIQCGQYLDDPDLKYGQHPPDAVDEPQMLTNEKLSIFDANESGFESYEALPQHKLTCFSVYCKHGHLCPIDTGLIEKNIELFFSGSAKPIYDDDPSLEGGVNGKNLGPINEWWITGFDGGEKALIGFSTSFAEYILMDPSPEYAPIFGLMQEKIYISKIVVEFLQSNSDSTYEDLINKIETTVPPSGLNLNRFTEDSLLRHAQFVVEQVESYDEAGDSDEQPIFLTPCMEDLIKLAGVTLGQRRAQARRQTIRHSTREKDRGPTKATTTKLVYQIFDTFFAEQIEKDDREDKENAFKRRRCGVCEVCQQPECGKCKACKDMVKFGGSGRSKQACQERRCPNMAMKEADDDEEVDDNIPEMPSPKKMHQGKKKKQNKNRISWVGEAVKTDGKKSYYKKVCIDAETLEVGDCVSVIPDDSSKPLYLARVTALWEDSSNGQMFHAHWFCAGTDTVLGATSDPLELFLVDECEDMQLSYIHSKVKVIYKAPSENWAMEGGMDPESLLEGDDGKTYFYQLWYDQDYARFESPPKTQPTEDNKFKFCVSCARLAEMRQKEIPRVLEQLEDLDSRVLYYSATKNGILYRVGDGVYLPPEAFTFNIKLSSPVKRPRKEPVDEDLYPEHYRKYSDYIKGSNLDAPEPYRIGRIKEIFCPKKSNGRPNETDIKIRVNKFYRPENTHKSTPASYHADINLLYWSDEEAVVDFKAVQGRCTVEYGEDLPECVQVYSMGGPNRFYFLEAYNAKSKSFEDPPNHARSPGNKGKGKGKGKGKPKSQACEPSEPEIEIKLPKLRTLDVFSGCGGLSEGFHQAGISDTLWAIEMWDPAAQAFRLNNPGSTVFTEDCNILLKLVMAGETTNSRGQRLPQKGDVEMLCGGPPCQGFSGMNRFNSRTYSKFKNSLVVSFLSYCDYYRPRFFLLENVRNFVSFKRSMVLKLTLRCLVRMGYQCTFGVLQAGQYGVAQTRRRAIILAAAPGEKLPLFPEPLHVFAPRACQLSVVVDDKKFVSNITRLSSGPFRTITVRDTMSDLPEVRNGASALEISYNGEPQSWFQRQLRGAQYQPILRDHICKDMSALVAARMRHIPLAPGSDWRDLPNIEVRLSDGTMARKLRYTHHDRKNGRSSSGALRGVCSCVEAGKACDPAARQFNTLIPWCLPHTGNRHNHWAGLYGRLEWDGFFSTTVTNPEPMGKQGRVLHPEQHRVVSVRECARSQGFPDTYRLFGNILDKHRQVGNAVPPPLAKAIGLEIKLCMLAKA

B1: 26-mer hemimethylated CpG DNA (dsDNA)
DNA 1: ACACCAAGCCTGCGGAGGCTCACGGA
DNA 2: TCCGTGAGCCTCCGCAGGCTTGGTGT
modifications: 5-methyl-2'-deoxycytidine at position 13 of strand 1 (upper)
binding result: binds
